Laboratory results reported in the RNAGym collection of RNA variant scans (doi:10.7554/elife.80360).

B1: HDV Ribozyme (parent)
chain: GGCCGGCAUGGUCCCAGCCUCCUCGCUGGCGCCGGCUGGGCAACAUUCCGAGGGGACCGUCCCCUCGGUAAUGGCGAAUGGGACCCA

Variants of: B1
Assay: self-cleavage, relative activity (ratio to wild type); higher = more cleavage; co-transcriptional
For GGCCGGCAUGGUCCCAGCCUCCUCCCUGGCGCCGGCUGGGCAACAUUCCGAGGGGACCGUCCCAUCGGUAAUGGCGAAUGGGACCCA, the self-cleavage was 0.203.
Work on GGCCGGCAUGGUCCCAGCCUCCUCGCUGGCGCCGGCUGGUCCACAUUCCGAGGGGACCGUCCCCUCGGUAAUGGCGAAUGGGACCCA yielded a self-cleavage of 0.671.
With GGCCGGCAUGGUCCCAGCCUCCUCGCUGGCGCCGGCUGGGCAACAUUCCGAGCGGACCGUCCCCUCGGUAAGGGCGAAUGGGACCCA the self-cleavage was 0.697.
With GGCCGGCAUGGUCCCAGCCUCCUCGCUGGCGCCGGCUGGGCUACAUUCCGAGGGGACCGUCCCCUCGGUAAUGUCGAAUGGGACCCA the self-cleavage was 0.277.
For GGCCGGCAUGGUCCCAGCCUCCUUGCUGGCGCCGGCUGGGCAACAUUCCGAGGGGACCGUCCCCUCGGUAAUGGCAAAUGGGACCCA, the self-cleavage was 0.59.
GGCCGGCAUGGUCCCAGCCUCCUCGCUAGCGCCGGCUGGGCAACAUUCCGAGGGGACUGUCCCCUCGGUAAUGGCGAAUGGGACCCA gave a self-cleavage of 0.0228.
Variant GGCCGGCAUGGUCCCAGCCUCCUCGCUGGCGCCAACUGGGCAACAUUCCGAGGGGACCGUCCCCUCGGUAAUGGCGAAUGGGACCCA has a self-cleavage of 0.145.
Variant AGCCGGCAUUGUCCCAGCCUCCUCGCUGGCGCCGGCUGGGCAACAUUCCGAGGGGACCGUCCCCUCGGUAAUGGCGAAUGGGACCCA has a self-cleavage of 0.153.
For GGCCGGCAUGGUCCCAGCCUCCUCGCUGGCGCCGACUGGGCAACAUUCCGAGGGGACCGUCCCCUCGGGAAUGGCGAAUGGGACCCA, the self-cleavage was 0.541.
In the case of GGCCGGCAUGGUCCCAGCGUCCUCGCUGGCGCCGGCUGGGCAACAUUCCGAGGGGACCGUCCCCUCGGUAAUGGCGGAUGGGACCCA, the self-cleavage is reported as 0.0426.
GGCCGGCAUGGUCCCAGCCUCCUCGCUGGCGCCGGCUGGGCAACAUUCCGAGGGGACCGUCCGCUCGGUAAUGGCGAAUGUGACCCA gave a self-cleavage of 0.375.
With GGCCGGCAUGGACCCAGCCUCCUCGGUGGCGCCGGCUGGGCAACAUUCCGAGGGGACCGUCCCCUCGGUAAUGGCGAAUGGGACCCA the self-cleavage was 0.609.
In the case of GGCCGGCAUGGUCCCAGCCUCCUCGCUGUCGCGGGCUGGGCAACAUUCCGAGGGGACCGUCCCCUCGGUAAUGGCGAAUGGGACCCA, the self-cleavage is reported as 0.0369.
For AGCCGGCAUAGUCCCAGCCUCCUCGCUGGCGCCGGCUGGGCAACAUUCCGAGGGGACCGUCCCCUCGGUAAUGGCGAAUGGGACCCA, the self-cleavage was 0.151.
GGCCGGCAUGGUCCCAGCCUCCUCGCUGGCGCCGGCUGGGCAACAUUCCGAGGGUACCGUCCCCUCGGUAAUGGCGAAUGGGACUCA gave a self-cleavage of 0.92.
GGCCGGCAUGGUCCCAGCCUACUCGCUGGCGCCGGCUGGGCAACAUUCCGAGGUGACCGUCCCCUCGGUAAUGGCGAAUGGGACCCA gave a self-cleavage of 0.0773.
GGCCGACAUGGUCCCAGCCUCCUCGCUGGCCCCGGCUGGGCAACAUUCCGAGGGGACCGUCCCCUCGGUAAUGGCGAAUGGGACCCA showed a self-cleavage of 0.111.
Variant GGCCGGCAUGGUCCCAGCCUCCUCGCUGGCGCCGGCUGGGCAACAGUCCGAGGCGACCGUCCCCUCGGUAAUGGCGAAUGGGACCCA has a self-cleavage of 0.453.
With GGCCGGCAUGGUCCCAGACUCCUCGCUUGCGCCGGCUGGGCAACAUUCCGAGGGGACCGUCCCCUCGGUAAUGGCGAAUGGGACCCA the self-cleavage was 0.
In the case of GGCCGGCAUGGGCCCAGCCUCCUCGCUGGCGCCGGCUGGGCAACAUUCCGAGGGGACCGUCCCCUCGGUAAUCGCGAAUGGGACCCA, the self-cleavage is reported as 0.489.
Variant GGCCGGCAUGGUCCCAGCCUCCUCGCUGGCGCCGGCUGGGCAACAUUCCGAGGGGACCGUCCCAUCGGUAAUGCCGAAUGGGACCCA has a self-cleavage of 0.242.
GGCCGGCAUGGUCCCAGCCUCCUCGCUGGUGCCGGCUGGGCAACAUUCCGAGGGGACCGUCCCCUCGGUAAUGGCGAAUGGUACCCA gave a self-cleavage of 0.252.
In the case of GGCCGGCAUGGUCCCAGCCUCCUCGCUGGCGCCGGCUGGGCUACAUUCCGAGGGGACCGUCCCCUCGGUAAUGGGGAAUGGGACCCA, the self-cleavage is reported as 0.125.
In the case of GGCCGGCAUGGUCCCAGCCUCCUCGCUGGCGCCGACUGGGCAACAUUCCGAGGGGACCGUCCCCUCGGUAUUGGCGAAUGGGACCCA, the self-cleavage is reported as 0.389.
In the case of GGCAGGCAUGGUCCCAGCCUCCUCGCUGGCGCCGGCUGGGCAACAUUCCGAGGAGACCGUCCCCUCGGUAAUGGCGAAUGGGACCCA, the self-cleavage is reported as 0.268.
GGCCGGCAUGGUCCCAGCCUCCUCGCUGGCGCCGGCUGGGCAACAUUCCGAGGGGACCGUCUCCUCGGUAAUGGCGAAUGGGAACCA showed a self-cleavage of 1.14.
With GGCCGGCAUGGUCCCAGCCUCCUCGCUGGCGCCGGCUGGGCUACAUUCCGAGGGGACCGUUCCCUCGGUAAUGGCGAAUGGGACCCA the self-cleavage was 0.445.
For GGCCGGCAUCGUCCCAGCCUCCUCGCUGGCGCCGGCUGGGCAACAUUCCGAGGGCACCGUCCCCUCGGUAAUGGCGAAUGGGACCCA, the self-cleavage was 0.759.
In the case of GGCCGGGAUGGUCCCAGCCUCCGCGCUGGCGCCGGCUGGGCAACAUUCCGAGGGGACCGUCCCCUCGGUAAUGGCGAAUGGGACCCA, the self-cleavage is reported as 0.217.
With GGCCGGCAUGGUCCCAGCCUCCUCGCUGGCGCCGGCUGGGCAACAUUCAGAGGGGACCGGCCCCUCGGUAAUGGCGAAUGGGACCCA the self-cleavage was 1.33.
GGCCGGCAUGGUCCCAGCCUCCUCGCUGGCGCCGGCUGGACAACAUUCCGAGGGGACCGUCCCCUCGGUAAUGGCGAAUGGGACUCA showed a self-cleavage of 1.1.
Variant GGCCGGCAUGGUCCCAGCCUCCGCGUUGGCGCCGGCUGGGCAACAUUCCGAGGGGACCGUCCCCUCGGUAAUGGCGAAUGGGACCCA has a self-cleavage of 0.997.
GGCCGGCAUGGUCCCAGCCUCCUCGCUGGCGCCGGCUGGGCAACUUUCCGAGGCGACCGUCCCCUCGGUAAUGGCGAAUGGGACCCA gave a self-cleavage of 0.849.
GGCCGGCAUGGUCCCAGCCUCCUCGCUGGCGCCGGCGGGGCAACAUUCCGAGGGGACCGUCCCCUCGGUAAUGGCGAAUGGGAACCA showed a self-cleavage of 0.161.
In the case of GGCCGGCAUGGUCCCAGCCUCCUCGCUGGCGCCGGUUGGGCAACAUUCCGAGGGGACCGUCCCCUCGGUAAUGGCGAAUGGGGCCCA, the self-cleavage is reported as 0.56.
Work on GGCCGGCAUUGUCCCAGCCUCCACGCUGGCGCCGGCUGGGCAACAUUCCGAGGGGACCGUCCCCUCGGUAAUGGCGAAUGGGACCCA yielded a self-cleavage of 0.604.
GACCGGCAUGGUCCCAGCCUCCUCGCUGGCGCCGGCUGGGCUACAUUCCGAGGGGACCGUCCCCUCGGUAAUGGCGAAUGGGACCCA showed a self-cleavage of 0.0804.
For GGCCGGCAUGGUCCCAGCCUCCUCGCUGGCGCCGGCUGGGCAACAUUCCUAGGGGACCGACCCCUCGGUAAUGGCGAAUGGGACCCA, the self-cleavage was 0.87.
Variant GGCCGGCAUGGUCCCAGCCUCCUCGCUGGCGCCGGCUGGGAAACAUACCGAGGGGACCGUCCCCUCGGUAAUGGCGAAUGGGACCCA has a self-cleavage of 0.689.
With GACCGGCAUGGUCCCAGCCUCCUCGCUGGCGCCGGCUGGGCAACAUUCCGAGGGGACCGUCCCCUCGGUAAUGGCGAAUGGCACCCA the self-cleavage was 0.0639.
GGCCCGCAUGGUCCCAGCCUCCUCGCUGGCGCCGGCUGGGCAACAUUCCGAGGGGACCGUCCCCUCGGUAAAGGCGAAUGGGACCCA gave a self-cleavage of 0.095.
GGCCGGCAUGGUCCCAGCCUCCUCGCUGGCGCCGGCUGGGCAACGUUCCGAGGGGACCGUCCCCUCGGUAAUGGCGAAUGGGACCAA gave a self-cleavage of 0.639.
GGCCGGCAUGGUCCCAGCCUCCUCGCUGGCGCCGGCUGGGCAACAUUCCGAGGGGAUCGUCCCCUCGGUACUGGCGAAUGGGACCCA gave a self-cleavage of 0.923.
Work on GGCCGGCAUGGUCCCAGCCUCCUCGCUGGCGCCGGCUGGGCAACAUUCCGAGGGGAACGUCCCCUCGGUAAUGGCGAAUGGGGCCCA yielded a self-cleavage of 0.688.
GGCCGGCAUGGUCCCAGCCUCCUCGCUGGCACCGGCUGGGCAACAUCCCGAGGGGACCGUCCCCUCGGUAAUGGCGAAUGGGACCCA showed a self-cleavage of 0.424.
With GGCCGGCUUGGUCCCAGCCUCCUCGCUGGCGCCGGCUGGGCAACAUUCAGAGGGGACCGUCCCCUCGGUAAUGGCGAAUGGGACCCA the self-cleavage was 1.13.
GGCCGGCAUGGUCCCAGCUUCCUCGCUGGCGCCGGCUCGGCAACAUUCCGAGGGGACCGUCCCCUCGGUAAUGGCGAAUGGGACCCA showed a self-cleavage of 0.0875.
Variant GGCCGGCAUGGUCCCAGCCUCCUCGCUGGCGCCGGCUGAGCAACAUUCCGAGGGGACCGACCCCUCGGUAAUGGCGAAUGGGACCCA has a self-cleavage of 0.268.
GGCCGGCAUGGUCCCAGCCUCAUCGCUGGCGCCGGCUGGGCAACAUUCCGAGGGGACCGUCCCCUCAGUAAUGGCGAAUGGGACCCA gave a self-cleavage of 0.185.
GGCCGGCAUGGUCCCAGCCUCCUCGAUGGCGCCGGCUGGGCAACAUUCCGAGGGGACCGUCCCCUCGGUAAUGGCGAAUGGGAGCCA showed a self-cleavage of 0.95.
With GGCCGGCAUGGUCCCAGCCUCCUCGCUGGCGCCGGCUGGGAAACAUUCCGAGGGGACCGUCCCCUCGGUAAUGGCGAAUGGGACACA the self-cleavage was 0.636.
GGCCGGCAUGGUCCCAGCCUCCUCGCUGGCGCCUGCUGGGCAACAUUCCGAGGGGACCGUCCCCUCGGUAUUGGCGAAUGGGACCCA showed a self-cleavage of 0.208.
Variant GGCCGGCAUGGUCCCAGCCUCCUCGCUGGCGCCGGCUGGGCAACAUCCCGAGGAGACCGUCCCCUCGGUAAUGGCGAAUGGGACCCA has a self-cleavage of 1.04.
GGCCGGCAUGGUCCCAGCCUCCUCGCUGGCGGCGGCUGGGCAACAUUCCGAGGGCACCGUCCCCUCGGUAAUGGCGAAUGGGACCCA gave a self-cleavage of 0.136.
Work on GGCCGGCAUGGUCCCAGCCUCCUCGCUGGCGCCGGCUGGGGAACAUUCCGAGGGGACCGUCCCCUCGGUAAUGGCGAACGGGACCCA yielded a self-cleavage of 0.35.
In the case of GGCCGGCAUGGUCCCAGCCUCCUCGCUGGCGCCGCCUGGGCAACAUUCCGAGGGGACCGUCCCCUAGGUAAUGGCGAAUGGGACCCA, the self-cleavage is reported as 0.253.
For GGCCGGCAUGGUCCCAGCCUCCACGCUGGCGCCGGCUGGGCAACAUUCAGAGGGGACCGUCCCCUCGGUAAUGGCGAAUGGGACCCA, the self-cleavage was 0.538.
Variant GGUCGGCAUGGUCCCAGCCUCCUCGCUGGCACCGGCUGGGCAACAUUCCGAGGGGACCGUCCCCUCGGUAAUGGCGAAUGGGACCCA has a self-cleavage of 0.329.
GGCCGGCAUGGUCCCAGCCUCCUCGCUGGCCCCGGCUGGGCAACAUUCCGAGGGGACCGUCCCCUCGGUAAUAGCGAAUGGGACCCA showed a self-cleavage of 0.0346.
GGCCGGCAUGGUCCCAGCCUCCUCCCUGGCGCCGGCUGGGCAACAUUCCGAGGGGACCGACCCCUCGGUAAUGGCGAAUGGGACCCA gave a self-cleavage of 0.256.
Work on GGCCGGCAUGGUCCCAGCCUCCUCGCUGGCGCCGGCUGGGCAACAUUCCGAGGGGCCCGUCCCCUCGGUAAUGGCGAAUGGGAUCCA yielded a self-cleavage of 0.718.
For GGCCGGCAUGGUCCGAGCCUCCUCGCUGGCGCCGGCUGGGCAACAUUCCGAGGGGACCGUCCCCUCGGUAAUGGAGAAUGGGACCCA, the self-cleavage was 0.
GGCCGGCAUGGUCCCAGCCCCCUCGCUGGCGCCGGCUGGGCAACAUUGCGAGGGGACCGUCCCCUCGGUAAUGGCGAAUGGGACCCA showed a self-cleavage of 0.0594.
In the case of GGCCGGCAUGGUCCCAGCCUCCUCGCUGGCGCCGGCUGGGCAAGAUUCCGAGGGGACCGUCCCCUCGGUAAUGGCGAAUGGGACCAA, the self-cleavage is reported as 0.767.
